For four molecules, interaction score results are on record in publication PMC10397247.

Test [1] concerns the target T1, 4H391-AA.
T1 chain: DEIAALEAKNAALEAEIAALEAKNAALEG
Put plainly: two-hybrid library CCmax.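 Note: natural log of median RNA to DNA barcode read ratio; higher means stronger binding.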 To be noted: mean of both orientations.

Test [2] concerns the target T2, 4H3417-AA.
T2 chain: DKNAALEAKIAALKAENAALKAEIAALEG
Put plainly: two-hybrid library CCmax.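 Note: natural log of median RNA to DNA barcode read ratio; higher means stronger binding.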 To be noted: mean of both orientations.

Test [3] addresses T3, 4H3939-AA.
T3 chain: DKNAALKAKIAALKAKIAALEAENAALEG
Put plainly: two-hybrid library CCmax.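 Note: natural log of median RNA to DNA barcode read ratio; higher means stronger binding.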 To be noted: mean of both orientations.

Test [4] has as its target T4, 4H3920-AA.
T4 chain: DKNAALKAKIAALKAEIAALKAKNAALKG
In words: two-hybrid library CCmax.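 Note: natural log of median RNA to DNA barcode read ratio; higher means stronger binding.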 To be noted: mean of both orientations.

Test [5] deals with T5, 4H478-AA.
T5 chain: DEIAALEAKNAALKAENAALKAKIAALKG
In words: two-hybrid library CCmax.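 Note: natural log of median RNA to DNA barcode read ratio; higher means stronger binding.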 The settings on record: mean of both orientations.

Test [6] concerns the target T6, 4H675-AA.
T6 chain: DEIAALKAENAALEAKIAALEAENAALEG
Put plainly: two-hybrid library CCmax.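 Note: natural log of median RNA to DNA barcode read ratio; higher means stronger binding.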

Test [7] concerns the target T7, 4H497-AA.
T7 chain: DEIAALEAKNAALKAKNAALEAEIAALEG
In words: two-hybrid library CCmax. To be noted: mean of both orientations.

For test [8], the target named is T8, 4H3709-AA.
T8 chain: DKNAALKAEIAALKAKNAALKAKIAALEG
In words: two-hybrid library CCmax. The settings on record: mean of both orientations.

Test [9] deals with T9, 4H3666-AA.
T9 chain: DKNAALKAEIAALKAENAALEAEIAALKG
Put plainly: two-hybrid library CCmax. The settings on record: mean of both orientations.

Test [10] has as its target T10, 4H428-AA.
T10 chain: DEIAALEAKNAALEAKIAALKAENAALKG
Put plainly: two-hybrid library CCmax. The settings on record: mean of both orientations.

Test [11] concerns the target T11, 4H971-AA.
T11 chain: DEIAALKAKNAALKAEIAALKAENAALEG
Put plainly: two-hybrid library CCmax. To be noted: mean of both orientations.

The target of test [12] is T12, 4H3121-AA.
T12 chain: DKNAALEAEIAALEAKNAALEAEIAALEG
In words: two-hybrid library CCmax.

For test [13], the target named is T13, 4H3446-AA.
T13 chain: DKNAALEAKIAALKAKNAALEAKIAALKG
Put plainly: two-hybrid library CCmax. To be noted: mean of both orientations.

The target in test [14] is T14, 4H656-AA.
T14 chain: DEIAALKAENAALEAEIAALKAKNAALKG
Put plainly: two-hybrid library CCmax. The settings on record: mean of both orientations.

Test [15] addresses T15, 4H3628-AA.
T15 chain: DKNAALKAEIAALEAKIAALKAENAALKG
Put plainly: two-hybrid library CCmax. To be noted: mean of both orientations.

Test [16] addresses T16, 4H3591-AA.
T16 chain: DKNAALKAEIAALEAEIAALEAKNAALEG
In words: two-hybrid library CCmax. To be noted: mean of both orientations.

For test [17], the target named is T17, 4H932-bN.
T17 chain: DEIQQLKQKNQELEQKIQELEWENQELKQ
In words: two-hybrid library CCNG1.

For test [18], the target named is T18, 4H949-bN.
T18 chain: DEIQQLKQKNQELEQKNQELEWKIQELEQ
In words: two-hybrid library CCNG1.

Test [19] deals with T19, 4H796-bN.
T19 chain: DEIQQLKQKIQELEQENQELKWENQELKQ
Put plainly: two-hybrid library CCNG1.

Test [20] concerns the target T20, 4H477-bN.
T20 chain: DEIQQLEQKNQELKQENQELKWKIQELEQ
Put plainly: two-hybrid library CCNG1.

Test [21] deals with T21, 4H492-bN.
T21 chain: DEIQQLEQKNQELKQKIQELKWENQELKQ
Put plainly: two-hybrid library CCNG1.

Test [22] addresses T22, 4H741-bN.
T22 chain: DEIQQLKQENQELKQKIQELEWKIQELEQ
Put plainly: two-hybrid library CCNG1.

The target of test [23] is T23, 4H341-AA.
T23 chain: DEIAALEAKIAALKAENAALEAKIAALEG
Put plainly: two-hybrid library CCmax. The settings on record: mean of both orientations.

The target of test [24] is T24, 4H3974-AA.
T24 chain: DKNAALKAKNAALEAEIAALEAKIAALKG
In words: two-hybrid library CCmax. The settings on record: mean of both orientations.

For test [25], the target named is T25, 4H3777-AA.
T25 chain: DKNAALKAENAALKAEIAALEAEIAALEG
Put plainly: two-hybrid library CCmax. To be noted: mean of both orientations.

For test [26], the target named is T26, 4H3449-AA.
T26 chain: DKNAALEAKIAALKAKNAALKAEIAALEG
Put plainly: two-hybrid library CCmax. To be noted: mean of both orientations.

The target of test [27] is T27, 4H3629-AA.
T27 chain: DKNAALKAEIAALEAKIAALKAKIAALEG
In words: two-hybrid library CCmax. To be noted: mean of both orientations.

In test [28] the target is T28, 4H432-AA.
T28 chain: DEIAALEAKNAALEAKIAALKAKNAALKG
Put plainly: two-hybrid library CCmax. To be noted: mean of both orientations.

In test [29] the target is T29, 4H446-AA.
T29 chain: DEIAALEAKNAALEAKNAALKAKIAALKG
Put plainly: two-hybrid library CCmax. To be noted: mean of both orientations.

In test [30] the target is T30, 4H324-AA.
T30 chain: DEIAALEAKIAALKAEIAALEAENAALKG
In words: two-hybrid library CCmax.

Test [31] addresses T31, 4H3619-AA.
T31 chain: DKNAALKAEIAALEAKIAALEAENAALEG
In words: two-hybrid library CCmax. The settings on record: mean of both orientations.

Test [32] concerns the target T32, 4H63-AA.
T32 chain: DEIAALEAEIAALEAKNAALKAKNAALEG
Put plainly: two-hybrid library CCmax. The settings on record: mean of both orientations.

Test [33] has as its target T33, 4H3915-AA.
T33 chain: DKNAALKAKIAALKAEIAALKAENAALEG
In words: two-hybrid library CCmax. To be noted: mean of both orientations.

In test [34] the target is T34, 4H380-AA.
T34 chain: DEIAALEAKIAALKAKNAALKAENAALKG
Put plainly: two-hybrid library CCmax. To be noted: mean of both orientations.

Take DKNAALEAEIAALEAKNAALEAEIAALEG [4H3121-AA]: the interaction score in test [1] is -1.89; in test [2] it was -1.39; in [3] it was -1.9; in test [4], -1.06; in [5], -0.966; in test [6] it was -2.08. Moreover, the interaction score in [7] was -1.74; in [8] it was -0.104; in test [9], -0.746; in test [10] it was -0.865; in test [11] it was -1.39; in test [12], -1.24. For the same molecule, the interaction score in test [13] was 1.8; in test [14], -1.6; in test [15], -1.32; in [16], -1.55.
Take DEIQQLKQKIQELEQENQELKWENQELKQ [4H796-bN]: the figures for the interaction score in [17], in test [18] and in test [19] were 0.298, -0.619 and 1.8, respectively.
On to DEIQQLEQKNQELKQENQELKWKIQELEQ [4H477-bN], for which the interaction score was -0.0984 in test [17], -1.14 in test [20], -0.94 in test [21] and -1.17 in test [22].
For DEIAALEAKIAALKAEIAALEAENAALKG [4H324-AA], the interaction score in test [23] was -0.39; in [24] it was 1.2; in [25] it was -1.37; in [26], -1.69; in test [27], 1.36; in [28], -0.834. The interaction score is -1.06 in test [29]; 1.11 in test [30]; 1.47 in test [31]; -0.0237 in test [32]; 0.128 in test [33]; 0.833 in test [34].
